Here are results for 2 substances from patent publication US20100297120A1.

This test has as its target epidermal growth factor receptor (EGFR) on EGFR positive U87 cells (UniProt P00533). As to the kind of experiment: FACS, saturation binding to EGFR on cells.

Turning to “Anti-EGFR-Angiopep-2 conjugate (EGFR antibody monoclonal 528 cross-linked to Angiopep-2 with SATA)”, the Half saturation came out at 1.8 nM.
As for “EGFR antibody (monoclonal 528 available from ATCC)”, the Bmax (RFU) is 23.6 RFU and the Half saturation is 1.7 nM.
